From US20250154283A1 (published 2025)

T1: biotinylated human VWF cysteine knot (CK) domain construct (human, biotin on the in vitro biotinylation tag (residue not stated); one N-glycan)
T1 construct: Disulfide-linked homodimer; also called biotinylated human VWF CK domain; human VWF CK domain construct
T1 chain: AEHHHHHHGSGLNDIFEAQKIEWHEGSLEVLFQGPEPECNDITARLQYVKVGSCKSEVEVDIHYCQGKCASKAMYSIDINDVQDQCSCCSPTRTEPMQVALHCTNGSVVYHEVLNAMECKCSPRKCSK

T2: His-StrepTagII-HRV3C-human VWF-CK-HA-tag (human)
T2 construct: it begins with the VWF signal peptide, whose limits were marked only by underlining that is lost in the text, so it was not cut off; The CK domain forms disulfide-linked homodimers (CK dimer); also called recombinant human CK domain; Human CK
T2 chain: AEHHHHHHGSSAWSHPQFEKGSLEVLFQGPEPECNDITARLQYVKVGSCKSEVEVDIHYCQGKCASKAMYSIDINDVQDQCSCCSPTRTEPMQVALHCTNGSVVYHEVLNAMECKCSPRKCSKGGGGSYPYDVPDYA

T3: His-StrepTagII-HRV3C-cyno VWF-CK-HA-tag (cynomolgus monkey)
T3 construct: it begins with the VWF signal peptide, whose limits were marked only by underlining that is lost in the text, so it was not cut off; The CK domain forms disulfide-linked homodimers; also called recombinant cyno CK domain; Cyno CK
T3 chain: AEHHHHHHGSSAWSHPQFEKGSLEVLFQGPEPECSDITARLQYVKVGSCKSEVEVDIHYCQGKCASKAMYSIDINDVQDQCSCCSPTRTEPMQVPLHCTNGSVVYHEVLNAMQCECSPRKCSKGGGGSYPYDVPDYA


Columns and labels:
[1] = biological target: T1, biotinylated human VWF cysteine knot …; test: SPR, scFv captured on anti-SV5, pH 7.4; apparent Kd
Excerpt: Briefly, a sensor chip was activated and coupled with an anti-SV5 mouse monoclonal antibody using amine coupling. The soluble scFvs in crude yeast supernatants were printed on the anti-SV5 lawn. […] From the measured association (kₒₙ) and dissociation (koff) rate constants, an apparent equilibrium dissociation constant (Kd=koff/kₒₙ) was estimated. Due to the dimeric state of the CK construct and consequent possibility for simultaneous binding of captured scFv to both monomers in the CK dimer, the SPR setup was expected to overestimate the binding affinity.

[2] = biological target: T2, His-StrepTagII-HRV3C-human VWF-CK-HA-tag; test: solution-phase equilibrium binding, free antibody by ELISA; apparent Kd; pH 5.5; mean ± SD, n=2
Description: (§1) Following incubation for 30 min at room temperature to establish equilibrium, unbound antibody was quantified by ELISA using the immobilized human CK domain for capture and HRP-conjugated goat anti-human IgG Fc antibody for detection.
(§2) Following a single wash of the plate with 200 μL of wash buffer (TBS containing 0.05% (v/v) Tween-20 and 5 mM CaCl₂), the plate was blocked by incubation with 200 μL blocking buffer (TBS containing 5 mM CaCl₂ and 1% (w/w) BSA) for 1 hour at room temperature. […] Incubation lasted 3 min and was followed by 5-min incubation with 100 μL HRP-conjugated goat anti-human IgG Fc antibody for detection (1 mg/mL stock diluted 1:20,000 in blocking buffer). Before and after addition of a detection antibody, the plate was washed 5 times with 200 μL wash buffer. A chromogenic horseradish peroxidase (HRP) substrate (100 μL) was then added and following color development for 3 min, 100 μL ELISA stop solution were added to quench the reaction. Absorbance was measured at 450 nm with subtraction of the absorbance at 620 nm.
(§3) The standard curve prepared with free antibody was fitted to a Sigmoidal four-parameter logistic (4PL) model.

[3] = biological target: T3, His-StrepTagII-HRV3C-cyno VWF-CK-HA-tag; test: as above
Description: as §1, §2, §3

[4] = biological target: T4, human plasma-derived VWF (human, UniProt P04275 764-2813); test: solution-phase equilibrium binding, free antibody by ELISA; apparent Kd; pH 7.4; mean ± SD, n=2
T4 construct: multimeric; also called pd-VWF; Human VWF
Description: as §1, §2, §3

[5] = biological target: T2, His-StrepTagII-HRV3C-human VWF-CK-HA-tag; test: as above
Description: as §1, §2, §3

[6] = biological target: T3, His-StrepTagII-HRV3C-cyno VWF-CK-HA-tag; test: as above
Description: as §1, §2, §3

[7] = biological target: T5, VWF in human plasma (human, UniProt P04275 764-2813); test: VWF:FVIIIB enzyme immunoassay; human plasma (5 donors) 17 h 37 °C with 200 nM antibody; FVIII bound to captured VWF relative to untreated plasma; ligand FVIII
T5 construct: Endogenous VWF in donor plasma, not purified; multimeric; also called VWF in plasma; VWF in platelet rich plasma

[8] = biological target: T5, VWF in human plasma; test: VWF:FVIIIB enzyme immunoassay; human plasma (5 donors) 17 h 37 °C with 600 nM antibody; FVIII bound to captured VWF relative to untreated plasma; ligand FVIII
[9] = biological target: T5, VWF in human plasma; test: collagen type III binding ELISA; human plasma (5 donors) 17 h 37 °C with 600 nM antibody; VWF bound to collagen relative to untreated plasma; ligand collagen type III
Description: Following incubation, collagen binding was determined relative to untreated plasma.

[10] = biological target: T5, VWF in human plasma; test: flow cytometry, FITC anti-VWF on platelets; human PRP (2 donors), 0.5 mg/ml ristocetin, 600 nM antibody; relative to the same plasma without antibody; receptor platelet gp1b
Description: PRP was prepared by centrifuging the blood at 250 g for 15 min. […] Sample analysis was performed on a flow cytometer. Using forward (FSC) and sideward (SSC) scatter pattern, a gate was placed on the platelets.

[11] = biological target: human plasma-derived von Willebrand Factor (VWF)

| Kd [1] | Kd [2] | Kd [3] | Kd [4] | Kd [5] | Kd [6] | VWF:FVIII level (% of control) [7] | VWF:FVIII level (% of control) [8] | Collagen binding (% control) [9] | Platelet binding (% control) [10] | Binder | VWF multimer distribution (LMW/IMW/HMW) after ristocetin, in the presence of 600 nM Lib1_P1_A6 OA [11] | VWF multimer distribution (LMW/IMW/HMW) after ristocetin, in the presence of 600 nM Lib1_P1_A9 OA [11] |
| --- | --- | --- | --- | --- | --- | --- | --- | --- | --- | --- | --- | --- |
| 0.05 nM |  |  |  |  |  |  |  |  |  | Lib1_P1_A9_scFv (scFv, not shown: small tags and cut ends, soluble scFv, VH-linker-VL, expressed in S. cerevisiae (applies to all 63 scFvs)) scFv: QVQLVQSGAEVKKPGASVKVSCKVSGDTLSSYGIHWVRQAPGKGLEWMGGSIPSFGTAIYAQKFQGRVTMTEDTSTDTAYMELSSLKSEDTAVYYCTSEGPWLPFFSFDYWGQGTLVTVSSSGGSTITSYNVYYTKLSSSGTDIQMTQSPSSVSASVGDRVTITCRASQGISRNLAWYQQKPGKAPKLLIYKASSLASGVPSRFSGSGSGTDFTLTISSLQPEDFANYYCQQSFSTPVTFGGGTKVEIK |  |  |
| 10 nM |  |  |  |  |  |  |  |  |  | 17561_Lib6_scFv (scFv, not shown: small tags and cut ends) scFv: EVQLVQSGAEVKKPGASVKVSCKASGYTFTDLPISWVRQAPGQGLEWMGWINPYTGDTNYAQKLQGRGTMTTDPSTSTAYMELRSLRSDDTAVYYCARDGVILGYYYYYGMDVWGQGTTVTVSSSGGSTITSYNVYYTKLSSSGTESALTQPASVSGSPGQSITISCTGTDLGSKSVSWYQQHPGKAPKLMIYDNFNRPSGVSNRFSGSKSGNTASLTISGLQAEDEADYYCSSRTVSGTYVFGGGTKLTVL |  |  |
|  | 17.9 nM | 26.4 nM | 5.7 nM | 5.3 nM | 10.2 nM | 91.1 % of control | 93.9 % of control | 106 % control | 89.7 % control | Lib1_P1_A9 OA (antibody, human IgG4 S228P, kappa, F234A L235A, also called monovalent (one-arm) Lib1_P1_A9) heavy: QVQLVQSGAEVKKPGASVKVSCKVSGDTLSSYGIHWVRQAPGKGLEWMGGSIPSFGTAIYAQKFQGRVTMTEDTSTDTAYMELSSLKSEDTAVYYCTSEGPWLPFFSFDYWGQGTLVTVSSASTKGPSVFPLAPCSRSTSESTAALGCLVKDYFPEPVTVSWNSGALTSGVHTFPAVLQSSGLYSLSSVVTVPSSSLGTKTYTCNVDHKPSNTKVDKRVESKYGPPCPPCPAPEAAGGPSVFLFPPKPKDTLMISRTPEVTCVVVDVSQEDPEVQFNWYVDGVEVHNAKTKPREEQFNSTYRVVSVLTVLHQDWLNGKEYKCKVSNKGLPSSIEKTISKAKGQPREPQVYTLPPSQEEMTKNQVSLSCAVKGFYPSDIAVEWESNGQPENNYKTTPPVLDSDGSFFLVSRLTVDKSRWQEGNVFSCSVMHEALHNHYTQKSLSLSLG ESKYGPPCPPCPAPEAAGGPSVFLFPPKPKDTLMISRTPEVTCVVVDVSQEDPEVQFNWYVDGVEVHNAKTKPREEQFNSTYRVVSVLTVLHQDWLNGKEYKCKVSNKGLPSSIEKTISKAKGQPREPQVYTLPPSQEEMTKNQVSLWCLVKGFYPSDIAVEWESNGQPENNYKTTPPVLDSDGSFFLYSRLTVDKSRWQEGNVFSCSVMHEALHNHYTQKSLSLSLG light: DIQMTQSPSSVSASVGDRVTITCRASQGISRNLAWYQQKPGKAPKLLIYKASSLASGVPSRFSGSGSGTDFTLTISSLQPEDFANYYCQQSFSTPVTFGGGTKVEIKRTVAAPSVFIFPPSDEQLKSGTASVVCLLNNFYPREAKVQWKVDNALQSGNSQESVTEQDSKDSTYSLSSTLTLSKADYEKHKVYACEVTHQGLSSPVTKSFNRGEC |  |  |
|  | 8.2 nM | 13 nM | 2.7 nM | 2.7 nM | 3.4 nM | 89.7 % of control | 88.6 % of control | 103 % control | 69.2 % control | Lib1_P1_A6 OA (antibody, human IgG4 S228P, kappa, F234A L235A, also called monovalent (one-arm) Lib1_P1_A6) heavy: QVQLVQSGAEVKKPGASVKVSCKVSGSTFSNYAIHWVRQAPGKGLEWMGGIVPLSGTAIYAQKFQGRVTMTEDTSTDTAYMELSSLKSEDTAVYYCARDQGESSGWYAIYYGMDVWGQGTTVTVSSASTKGPSVFPLAPCSRSTSESTAALGCLVKDYFPEPVTVSWNSGALTSGVHTFPAVLQSSGLYSLSSVVTVPSSSLGTKTYTCNVDHKPSNTKVDKRVESKYGPPCPPCPAPEAAGGPSVFLFPPKPKDTLMISRTPEVTCVVVDVSQEDPEVQFNWYVDGVEVHNAKTKPREEQFNSTYRVVSVLTVLHQDWLNGKEYKCKVSNKGLPSSIEKTISKAKGQPREPQVYTLPPSQEEMTKNQVSLSCAVKGFYPSDIAVEWESNGQPENNYKTTPPVLDSDGSFFLVSRLTVDKSRWQEGNVFSCSVMHEALHNHYTQKSLSLSLG ESKYGPPCPPCPAPEAAGGPSVFLFPPKPKDTLMISRTPEVTCVVVDVSQEDPEVQFNWYVDGVEVHNAKTKPREEQFNSTYRVVSVLTVLHQDWLNGKEYKCKVSNKGLPSSIEKTISKAKGQPREPQVYTLPPSQEEMTKNQVSLWCLVKGFYPSDIAVEWESNGQPENNYKTTPPVLDSDGSFFLYSRLTVDKSRWQEGNVFSCSVMHEALHNHYTQKSLSLSLG light: DIQMTQSPSSVSASVGDRVTITCRASQGIGTWLAWYQQKPGKAPKLLIYGSSSRASGVPSRFSGSGSGTDFTLTISSLQPEDFANYYCQQSYGKPTFGGGTKVEIKRTVAAPSVFIFPPSDEQLKSGTASVVCLLNNFYPREAKVQWKVDNALQSGNSQESVTEQDSKDSTYSLSSTLTLSKADYEKHKVYACEVTHQGLSSPVTKSFNRGEC |  |  |
|  |  |  |  |  |  |  |  |  |  | ADAM Metallopeptidase With Thrombospondin Type 1 Motif 13 (ADAMTS13) (protein) AAGGILHLELLVAVGPDVFQAHQEDTERYVLTNLNIGAELLRDPSLGAQFRVHLVKMVILTEPEGAPNITANLTSSLLSVCGWSQTINPEDDTDPGHADLVLYITRFDLELPDGNRQVRGVTQLGGACSPTWSCLITEDTGFDLGVTIAHEIGHSFGLEHDGAPGSGCGPSGHVMASDGAAPRAGLAWSPCSRRQLLSLLSAGRARCVWDPPRPQPGSAGHPPDAQPGLYYSANEQCRVAFGPKAVACTFAREHLDMCQALSCHTDPLDQSSCSRLLVPLLDGTECGVEKWCSKGRCRSLVELTPIAAVHGRWSSWGPRSPCSRSCGGGVVTRRRQCNNPRPAFGGRACVGADLQAEMCNTQACEKTQLEFMSQQCARTDGQPLRSSPGGASFYHWGAAVPHSQGDALCRHMCRAIGESFIMKRGDSFLDGTRCMPSGPREDGTLSLCVSGSCRTFGCDGRMDSQQVWDRCQVCGGDNSTCSPRKGSFTAGRAREYVTFLTVTPNLTSVYIANHRPLFTHLAVRIGGRYVVAGKMSISPNTTYPSLLEDGRVEYRVALTEDRLPRLEEIRIWGPLQEDADIQVYRRYGEEYGNLTRPDITFTYFQPKPRQAWVWAAVRGPCSVSCGAGLRWVNYSCLDQARKELVETVQCQGSQQPPAWPEACVLEPCPPYWAVGDFGPCSASCGGGLRERPVRCVEAQGSLLKTLPPARCRAGAQQPAVALETCNPQPCPARWEVSEPSSCTSAGGAGLALENETCVPGADGLEAPVTEGPGSVDEKLPAPEPCVGMSCPPGWGHLDATSAGEKAPSPWGSIRTGAQAAHVWTPAAGSCSVSCGRGLMELRFLCMDSALRVPVQEELCGLASKPGSRREVCQAVPCPARWQYKLAACSVSCGRGVVRRILYCARAHGEDDGEEILLDTQCQGLPRPEPQEACSLEPCPPRWKVMSLGPCSASCGLGTARRSVACVQLDQGQDVEVDEAACAALVRPEASVPCLIADCTYRWHVGTWMECSVSCGDGIQRRRDTCLGPQAQAPVPADFCQHLPKPVTVRGCWAGPCVGQGTPSLVPHEEAAAPGRTTATPAGASLEWSQARGLLFSPAPQPRRLLPGPQENSVQSSACGRQHLEPTGTIDMRGPGQADCAVAIGRPLGEVVTLRVLESSLNCSAGDMLLLWGRLTWRKMCRKLLDMTFSSKTNTLVVRQRCGRPGGGVLLRYGSQLAPETFYRECDMQLFGPWGEIVSPSLSPATSNAGGCRLFINVAPHARIAIHALATNMGAGTEGANASYILIRDTHSLRTTAFHGQQVLYWESESSQAEMEFSEGFLKAQASLRGQYWTLQSWVPEMQDPQSWKGKEGT | The same shift in VWF multimer pattern was observed when plasma was treated with ristocetin in the presence of 600 nM antibody including Lib1_P1_A9 and Lib1_P1_A6 | The same shift in VWF multimer pattern was observed when plasma was treated with ristocetin in the presence of 600 nM antibody including Lib1_P1_A9 and Lib1_P1_A6 |
